The target in assay [1] is Rhizomucor (Rhizomucor (species not given)). In words: flow cytometry on fixed Rhizomucor spores; blank 'Hu 2nd Only' median 257.20, mean 272.52.
Assay [2] addresses Rhizopus delemar (Rhizopus delemar). Put plainly: flow cytometry on fixed Rhizopus delemar spores; blank 'Hu 2nd Only' median 565.83, mean 592.76.
For assay [3], the target named is Mucor circinelloides (Mucor circinelloides). In words: flow cytometry on fixed Mucor circinelloides spores; blank 'Hu 2nd Only' median 990.21, mean 1062.19.
Assay [4] concerns the target Cunninghamella bertholletiae (Cunninghamella bertholletiae). Put plainly: flow cytometry on fixed Cunninghamella bertholletiae spores; blank 'Hu 2nd Only' median 241.78, mean 250.81.
Assay [5] has as its target Lichtheimia corymbifera (Lichtheimia corymbifera). Put plainly: flow cytometry on fixed Lichtheimia corymbifera spores; blank 'Hu 2nd Only' median 461.38, mean 517.80.

Rhizopus delemar (Rhizopus delemar), sequence (I1CFE1 18-579): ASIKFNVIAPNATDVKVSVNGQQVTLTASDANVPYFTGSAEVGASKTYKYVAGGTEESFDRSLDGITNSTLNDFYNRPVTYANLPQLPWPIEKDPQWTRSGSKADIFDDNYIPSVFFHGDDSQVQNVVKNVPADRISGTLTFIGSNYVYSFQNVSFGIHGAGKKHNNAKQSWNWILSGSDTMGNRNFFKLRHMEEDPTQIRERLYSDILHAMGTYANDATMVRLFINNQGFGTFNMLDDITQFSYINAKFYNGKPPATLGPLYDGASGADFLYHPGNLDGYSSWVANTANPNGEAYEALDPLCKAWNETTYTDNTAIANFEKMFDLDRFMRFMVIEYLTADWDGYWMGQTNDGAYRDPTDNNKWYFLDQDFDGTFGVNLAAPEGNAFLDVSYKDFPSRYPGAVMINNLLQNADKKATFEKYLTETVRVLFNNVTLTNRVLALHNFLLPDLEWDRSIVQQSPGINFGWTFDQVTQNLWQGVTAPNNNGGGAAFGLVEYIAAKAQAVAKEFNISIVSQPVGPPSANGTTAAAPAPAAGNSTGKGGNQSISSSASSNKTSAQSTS

With Hu Isotype IgG (antibody), the Mean: FITC-A is 1110 in assay [1]; 1210 in assay [2]; 2020 in assay [3]; 1070 in assay [4]; 2830 in assay [5]. Besides, the Median: FITC-A turned out to be 843 in assay [1]; 1010 in assay [2]; 1820 in assay [3]; 833 in assay [4]; 1170 in assay [5].

The record behind these values is US20240209070A1, “COTH3 BINDING AGENTS AND USES THEREOF” (priority 2021, published 2024).
